# Measurements: publication PMC3375269 (2012)
# Experiments:
# [1] = target: T1, Muscarinic acetylcholine receptor M1 (Homo sapiens, UniProt P11229); assay: [3H]-NMS equilibrium inhibition binding
# T1 chain: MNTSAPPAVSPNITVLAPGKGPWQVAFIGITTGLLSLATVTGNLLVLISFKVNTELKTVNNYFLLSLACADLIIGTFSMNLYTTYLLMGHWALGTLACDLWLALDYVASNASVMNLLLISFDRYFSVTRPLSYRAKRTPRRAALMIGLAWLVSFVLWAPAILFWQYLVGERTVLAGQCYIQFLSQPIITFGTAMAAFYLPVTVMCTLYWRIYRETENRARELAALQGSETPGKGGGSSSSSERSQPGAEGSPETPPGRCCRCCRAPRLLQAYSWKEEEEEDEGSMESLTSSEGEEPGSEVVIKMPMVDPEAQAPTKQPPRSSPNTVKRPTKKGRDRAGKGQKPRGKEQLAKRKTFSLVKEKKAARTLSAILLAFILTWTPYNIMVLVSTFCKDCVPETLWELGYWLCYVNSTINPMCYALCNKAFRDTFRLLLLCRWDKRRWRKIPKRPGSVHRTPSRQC
# [2] = target: T2, Muscarinic acetylcholine receptor M4 (Homo sapiens, UniProt P08173); assay: [3H]-NMS equilibrium inhibition binding
# T2 chain: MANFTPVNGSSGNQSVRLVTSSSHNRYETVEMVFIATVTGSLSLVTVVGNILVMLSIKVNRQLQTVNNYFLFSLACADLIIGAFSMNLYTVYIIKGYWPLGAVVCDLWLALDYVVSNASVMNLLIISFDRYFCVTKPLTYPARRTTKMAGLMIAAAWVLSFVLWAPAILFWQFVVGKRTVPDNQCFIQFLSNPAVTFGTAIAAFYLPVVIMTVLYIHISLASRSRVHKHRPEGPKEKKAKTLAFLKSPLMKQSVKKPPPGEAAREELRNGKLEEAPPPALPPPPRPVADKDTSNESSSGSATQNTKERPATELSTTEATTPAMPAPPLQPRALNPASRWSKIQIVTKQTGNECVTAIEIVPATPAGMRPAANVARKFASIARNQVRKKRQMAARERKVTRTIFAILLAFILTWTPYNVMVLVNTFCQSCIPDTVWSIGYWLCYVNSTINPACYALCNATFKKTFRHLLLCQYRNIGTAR
# alpha1A-adrenoceptor = target: T3, alpha1A-adrenoceptor (Homo sapiens, UniProt P35348); assay: [3H]-Prazosin equilibrium inhibition binding
# T3 chain: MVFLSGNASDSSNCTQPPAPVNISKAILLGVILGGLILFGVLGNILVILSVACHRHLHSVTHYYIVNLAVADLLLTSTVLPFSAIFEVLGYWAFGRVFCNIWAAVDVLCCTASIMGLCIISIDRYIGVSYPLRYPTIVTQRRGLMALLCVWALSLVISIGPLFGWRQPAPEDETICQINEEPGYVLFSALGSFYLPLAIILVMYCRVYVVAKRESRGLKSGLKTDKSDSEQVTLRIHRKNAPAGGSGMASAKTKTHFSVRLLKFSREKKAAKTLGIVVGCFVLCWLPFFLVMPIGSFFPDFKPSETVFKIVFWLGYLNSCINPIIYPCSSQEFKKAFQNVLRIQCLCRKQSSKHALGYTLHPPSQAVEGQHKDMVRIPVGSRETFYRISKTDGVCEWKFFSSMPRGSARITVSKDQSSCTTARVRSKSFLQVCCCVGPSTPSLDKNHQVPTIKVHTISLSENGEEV
Binder,Ki [1] [nM],Ki [2] [nM],Ki (alpha1A-adrenoceptor) [nM]
Muscarinic toxin 7 (MT7) (protein) LTCVKSNSIWFPTSEDCPDGQNLCFKRWQYISPRMYDFTRGCAATCPKAEYRDVINCCGTDKCNK,0.034,13000,> 20000
Muscarinic toxin 1 (MT1) (protein) LTCVTSKSIFGITTENCPDGQNLCFKKWYYIVPRYSDITWGCAATCPKPTNVRETIRCCETDKCNE,24,310,62
